According to PMC6040593 (Molecular cell, 2017):
Residue numbers refer to the chain shown, from its start. In names and notes the source's numbering stands.

Assays:
[1] = target: T1, soluble region of S. cerevisiae Msp1 (Δ1-32), wild type (S. cerevisiae), P28737; assay: SEC + SEC-MALS; details: remark: other sources report otherwise
T1 chain: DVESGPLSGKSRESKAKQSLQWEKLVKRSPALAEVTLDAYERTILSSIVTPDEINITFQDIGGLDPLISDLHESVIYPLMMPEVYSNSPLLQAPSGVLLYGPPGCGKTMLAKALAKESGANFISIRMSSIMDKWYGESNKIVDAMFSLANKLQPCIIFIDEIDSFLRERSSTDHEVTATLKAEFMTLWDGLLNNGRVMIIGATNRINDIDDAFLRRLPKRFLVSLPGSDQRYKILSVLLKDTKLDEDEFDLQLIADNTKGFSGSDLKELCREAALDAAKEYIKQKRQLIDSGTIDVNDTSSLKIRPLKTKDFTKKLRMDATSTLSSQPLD

[2] = target: T1, soluble region of S. cerevisiae Msp1 …; assay: SEC + SEC-MALS; details: remark: other sources report otherwise
[3] = target: the molecule itself; assay: SEC + SEC-MALS
[4] = target: the molecule itself; assay: SEC

B1: soluble region of S. cerevisiae Msp1 (Δ1-32), wild type, P28737 33-362 (domain or fragment)
chain: T1 chain
- stoichiometry N [1]: 6
- stoichiometry N [2]: 2

B2: soluble (Δ1-32) S. cerevisiae Msp1 E193Q (domain or fragment, UniProt P28737 33-362, looked up)
chain: T1 chain with E161Q
- stoichiometry N [3]: 6

B3: soluble (Δ1-32) S. cerevisiae Msp1 E193Q W166A/Y167A (domain or fragment, UniProt P28737 33-362, looked up)
chain: T1 chain with W134A, Y135A, E161Q
- stoichiometry N [4]: 6

B4: soluble (Δ1-32) S. cerevisiae Msp1 E193Q H206A/E207A (domain or fragment, UniProt P28737 33-362, looked up)
chain: T1 chain with E161Q, H174A, E175A
- stoichiometry N [4]: 6
